Tests used:
Format in all cases: in vivo, C57BL/6J mice
[1] = tested on: C57BL/6J diabetic model mice; test: Weekly fasting blood glucose in high-fat diet diabetic model mice under treatment; settings: daily subcutaneous injection, rhCygb 5 mg/kg; weekly monitoring; vs PBS group; FIG. 7
Source text: 50 SPF-grade male C57BL/6J mice were purchased from Guangzhou Sebiona Biotech Co., Ltd. Their health status and whether they were all male were checked. All male mice were divided into groups of 5 per cage, totaling ten cages, with cage numbering. Cages 1 to 8 were designated as the high-fat diet modeling group and fed a high-fat diet with ad libitum feeding and drinking. Cages 9 and 10 were designated as the normal diet modeling group and fed standard chow with ad libitum feeding and drinking. All mice were marked with tail lines for identification. During modeling, body weight and fasting blood glucose (FBG) levels of all mice were measured weekly, and tail markings were reinforced. […] At 9:00 AM every Friday, body weight was measured, the tail tip was clipped, and approximately 1-2 μL of (a drop of) blood was applied to a Roche Accu-Chek® Active test strip on a glucometer to determine FBG. […]
(§1) The mice of placebo group, rhCygb treatment group, and EX-4 treatment group received daily subcutaneous injections of PBS, rhCygb, or EX-4, respectively for 2 months (frequency adjusted based on survival status of mice). […] Absorbance at 510 nm was measured using a microplate reader. Cholesterol content was calculated according to the formula: […]

[2] = tested on: C57BL/6J diabetic model mice; test: Four blood lipid items in serum of treated mice (T-CHO, TG, HDL-C, LDL-C kits); settings: after 28 d of treatment
Protocol: (§2) The AUC for blood glucose changes within two hours post-glucose gavage was shown in FIG. 5, confirming impaired glucose tolerance in the DM group. • 2) Successfully modeled mice were divided into three groups based on no statistical difference in blood glucose within groups and statistical difference in blood glucose between groups: wherein the three groups are rhCygb treatment group (5 mg/kg subcutaneous injection), exendin-4 treatment group (50 μg/kg subcutaneous injection), and placebo group (0.1 mL PBS subcutaneous injection) (grouping without re-caging, mice remained in original cages), respectively.
(§3) The mice of placebo group, rhCygb treatment group, and EX-4 treatment group received daily subcutaneous injections of PBS, rhCygb, or EX-4, respectively for 2 months (frequency adjusted based on survival status of mice). […] Mice were immediately sacrificed by cervical dislocation after blood collection and dissected for tissue collection. Liver tissue, pancreas, kidneys, heart, lungs, stomach, and spleen were sequentially collected for biochemical and pathological examination as detailed below. 3. Measurement of four blood lipid items • 1) Total Cholesterol (T-CHO) Measurement: prepared serum was diluted tenfold with physiological saline at a 1:9 ratio. Into each well of a 96-well plate, 2.5 μL of deionized water, 2.5 μL of standard, and 2.5 μL of sample were sequentially added. Then, 250 μL of working solution was added to each well, thoroughly mixed, and incubated at 37° C. for 10 min in an electric thermostatic incubator. Absorbance at 510 nm was measured using a microplate reader. Cholesterol content was calculated according to the formula: […]
Serum from each treated C57BL/6J mouse was assayed using a total cholesterol assay kit. […] Furthermore, no significant difference was observed between the treated groups (rhCygb treatment group and exendin-4 treatment group) and the blank control group, indicating effective therapeutic outcomes. • 2) Triglyceride (TG) Measurement: prepared serum was diluted tenfold with physiological saline at a 1:9 ratio. […] Absorbance at 510 nm was measured using a microplate reader. Triglyceride content was calculated according to the formula: […]
Serum from each treated C57BL/6J mouse was assayed using a triglyceride assay kit. […] Absorbance at 546 nm (A1) was measured using a microplate reader. […] Absorbance at 546 nm (A2) was measured again. HDL-C content was calculated according to the formula: […]
Serum from each treated C57BL/6J mouse was assayed using an HDL-C assay kit. […] Absorbance at 546 nm (A1) was measured using a microplate reader. […] Absorbance at 546 nm (A2) was measured again. LDL-C content was calculated according to the formula: […]

[3] = tested on: pancreatic tissue of C57BL/6J diabetic model mice; test: H&E staining of pancreatic tissue sections
Protocol: as §2, §1
The severity of lesions observed in the HE-stained pathological sections of each mouse was graded. This ordinal data was analyzed using the K Independent Samples non-parametric test in SPSS software, and the result indicated a statistically significant difference between groups. As SPSS lacks pairwise comparison for multiple independent samples, all data were ranked and converted into quantitative data, then subjected to one-way ANOVA.

[4] = tested on: renal tissue of C57BL/6J diabetic model mice; test: H&E staining of renal tissue; settings: FIG. 14
Protocol: as §2
as §3, with “Into each well of a 96-well plate, 2.5 μL of deionized water, 2.5 μL of standard, and 2.5 μL of sample were sequentially added. Then, 250 μL of working solution was added to each well, thoroughly mixed, and incubated at 37° C. for 10 min in an electric thermostatic incubator.” left out

PCNA = PCNA immunohistochemistry of pancreatic tissue; settings: pancreas; 4-week treatment; FIG. 15 to 16D
Protocol: (§4) Pancreatic tissues were sectioned at 4 μm and baked at 60° C. for 2 h until paraffin melted. Sections underwent hematoxylin-eosin (H&E) staining.
(§5) Sections were immersed in methanol containing 3% hydrogen peroxide (endogenous peroxidase blocker) for 15 min. After PBS (10 mM, pH=7.0) rinsing, sections were incubated at 25° C. for 1 h with antibody cocktails (rabbit anti-glucagon monoclonal antibody: anti-somatostatin antibody=1:1), or separately with: anti-mouse insulin antigen monoclonal antibody, anti-proliferating cell nuclear antigen (PCNA) monoclonal antibody, rabbit anti-Ki67 monoclonal antibody. Alternatively, sections were incubated with guinea pig anti-PDX-1 monoclonal antibody at 4° C. for 14 h. Nuclei were counterstained blue with hematoxylin and sections were subjected to morphometric analysis.
PCNA Analysis method: The immunohistochemistry results were analyzed for percentage using Image-Pro Plus 6.0 (Media Cybernetics, Rockville, MD, USA), at least 3 random field of view at 200× per section within a group were captured. […] Each photo was analyzed to obtain the number of positive cells and the total number of cells in each photo. Then, the percentage of positive cells was calculated, as: Positive cell percentage (%)=(Positive nuclei count/Total nuclei count)*100 was calculated as the positive rate.

[5] = tested on: Insulin and Glucagon expression in pancreatic islets; test: Glucagon/Insulin immunohistochemistry of pancreatic islets (average optical density)
Protocol: as §4, §5
Glucagon/Insulin Analysis Method: The immunohistochemistry results were analyzed for average optical density analysis using Image-Pro Plus 6.0 (Media Cybernetics, Inc., Rockville, MD, USA). For each section with a group, at least 3 fields of view at 200× magnification were captured. […] The integrated optical density (IOD) value of positive staining on the pancreatic islet and the pixel area (AREA) of the pancreatic islet were analyzed for each photo. The average optical density value (AO value) was calculated as AO=IOD/AREA. […]

B1: rhCygb: recombinant human cytoglobin; hexacoordinate heme globin, 21.4 kDa, 190 amino acids, injected as PBS solution (protein, UniProt Q8WWM9 1-190, looked up)
Cytoglobin: MEKVPGEMEIERRERSEELSEAERKAVQAMWARLYANCEDVGVAILVRFFVNFPSAKQYFSQFKHMEDPLEMERSPQLRKHACRVMGALNTVVENLHDPDKVSSVLALVGKAHALKHKVEPVYFKILSGVILEVVAEEFASDFPPETQRAWAKLRGLIYSHVTAAYKEVGWVQQVPNATTPPATLPSSGP
- blood glucose [1]: significantly reduced blood glucose after 6 weeks
- HDL-C levels ([2]; vs NC group, FIG. 10): numerically higher HDL-C levels on average compared to other groups
- total cholesterol levels ([2]; subcutaneous rhCygb 5 mg/kg or exendin-4 50 μg/kg, FIG. 8): statistically significant reduction in total cholesterol levels compared to the placebo group
- LDL-C levels ([2]; subcutaneous rhCygb 5 mg/kg or exendin-4 50 μg/kg, FIG. 11): statistically significant reduction in LDL-C levels compared to the placebo group
- triglyceride levels ([2]; subcutaneous rhCygb 5 mg/kg, FIG. 9): statistically significant reduction in triglyceride levels compared to the placebo group
- severity of lesions in HE-stained pancreatic sections (graded, ranked, one-way ANOVA) ([3]; FIG. 13): no significant difference between rhCygb and NC groups
- pancreatic tissue morphology (H&E) ([3]; acinar cell steatosis, islet morphology, inflammation, FIGS. 12A-12D): normal pancreatic islet morphology without significant inflammation
- renal steatosis and inflammatory cell infiltration (H&E) [4]: near-normal renal morphology without significant inflammatory cells
- PCNA-positive cell rate (PCNA): significantly enhanced PCNA staining intensity
- expression level of glucagon (average optical density) ([5]; FIG. 17, 19): statistically significant differences compared to both the PBS group and the NC group
- expression level of insulin (average optical density) ([5]; FIG. 18, 20): statistically significant differences compared to both the PBS group and the NC group
